{"source": "patent US20110251106A1", "about": "(NEXTERA, published 2011)", "target": "T1, Streptavidin on Dynabeads MyOne-Streptavidin magnetic beads (UniProt P22629 37-163, limits assumed)", "T1 construct": "also called SA; SA beads", "T1 sequence (P22629 37-163 limits assumed)": "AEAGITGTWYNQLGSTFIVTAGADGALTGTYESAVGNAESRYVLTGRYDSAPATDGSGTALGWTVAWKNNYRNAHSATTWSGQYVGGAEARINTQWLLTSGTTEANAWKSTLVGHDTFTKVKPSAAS", "assay": "streptavidin bead capture of virions, anti-M13 MAb-HRP detection", "data": [{"binder": "MEQVADFDTIYQAMIQISVVLCFALGIIAGGQR (other, Control virion with no tag on pVII; Also used here for phagemid virions packaged with wt M13K07; also called wildtype M13K07; wt pVII)", "note": "[wild type pVII on M13K07 wt helper phage virions]", "values": [{"measurement": "binding result", "value": "no binding"}]}]}
